{"source": "the DeepSol protein solubility set"}
{"experiment": "soluble on expression in E. coli; label from the status in PepcDB or PDB records"}
{"sequence": "MGHHHHHHSHMISSNIREARTVILPRLMLEITSNGTLTVASHTPIFQKLSLLDLPSLTAHLKTKLSGSMFKGFLFATLCETEDHVTTLDMHPHVFEKRLVLYNPRNTCNKELCALISMVENLMDCDPKLPLSIYMRGKRLFQKNPGKDSCFLFKGLSTLISTHFAVYHPNFTVNDELLLPPLLAYKMHSTIEGIDEVSKGLLKAIYLDSYRMDNNIDDFQNPAGTFTLLCLPTIFTKHLTVPNVLILIKRAGLMYEAIDNIIL", "soluble on expression in E. coli": "not soluble"}
{"sequence": "MGSDKIHHHHHHMNIIKSFNSTIDYLETVLDDEIDEKKVTRISGYSYSMFSRLFSILTEMTLSEYLRSRRLTEAAIILRDTDEKIIDVAFKFGYESSDSFGTAFKNFHGFTPSEVRIGKPFKLVSRVQLALSVRGGRSMNIRIQKKKAFTVAGVNQQNINSSICASLWQKLFSKVSHEEMLNLGTGEVVGVCHDILSLDNHDVLDSNTINYMAGYIVTDVDKARSMGLDILEIGETEYAVVELTGSVPECIHNGWKYAMEVFFPEHGYVHSGKPDFEYYYEGDMYSKDYKMELWIPVCKS", "soluble on expression in E. coli": "not soluble"}
{"sequence": "MKIIVQKFGGTSVKDDKGRKLALGHIKEAISEGYKVVVVVSAMGRKGDPYATDSLLGLLYGDQSAISPREQDLLLSCGETISSVVFTSMLLDNGVKAAALTGAQAGFLTNDQHTNAKIIEMKPERLFSVLANHDAVVVAGFQGATEKGDTTTIGRGGSDTSAAALGAAVDAEYIDIFTDVEGVMTADPRVVENAKPLPVVTYTEICNLAYQGAKVISPRAVEIAMQAKVPIRVRSTYSNDKGTLVTSHHSSKVGSDVFERLITGIAHVKDVTQFKVPAKIGQYNVQTEVFKAMANAGISVDFFNITPSEIVYTVAGNKTETAQRILMDMGYDPMVTRNCAKVSAVGAGIMGVPGVTSKIVSALSEKEIPILQSADSHTTIWVLVHEADMVPAVNALHEEFELSK", "soluble on expression in E. coli": "soluble"}
{"sequence": "MNSSSTLQKLLDRRGQAANGNSATQAVQWQEGMNLTLHVNGDSLTMLAEIINLRADPQDDILLRKLLAHAFPGLRLRRGALTINPDENTLVYSYEHDFLALDKTRFENLLANFAETTQELRNTAQRLR", "soluble on expression in E. coli": "not soluble"}
{"sequence": "SLGWFKTCSKQEDNDVCVVQNVVLAQNGQMITAVGLITVEGKVNRKLLQVSVPTARLIPPGVMMQIDGGKGQKLDYAVCLPDKCTAEVPLTDAMIASLKKGSEVVFTSINFRRAPNPIKIALSGFTGAYDGAAITQSQLAE", "soluble on expression in E. coli": "not soluble"}
{"sequence": "MTADWVVTFTFDADPSMETMDAWETQLEGFDALVSRVPGHGIDVTVYAPGDWSVFDALAKMAGEVMPVVQAKSPIAVQIISEPEHRLRAEAFTTPELMSAAEIADELGVSRQRVHQLRSTAGFPAPLADLRGGAVWDAAAVRRFAETWERKPGRPHTGTAKFAYSWAVGPAVGRSGKAPNVRWRVENPDKIRFVLRNIGDDIAEDVEIDLSRIDAITRNVPKKTVIRPGEGLNMVLIAAWGHPLPNQLYVRWAGQDEWAAVPLHPAH", "soluble on expression in E. coli": "soluble"}
{"sequence": "MEKQQDLPFPYEFRELNPEEDKLVKANLGAFPTTYVKLGPKGYMVYRPYLKDAANIYNMPLRPTDVFVASYQRSGTTMTQELVWLIENDLNFEAAKTYMSLRYIYLDGFMIYDPEKQEEYNDILPNPENLDMERYLGLLEYSSRPGSSLLAAVPPTEKRFVKTHLPLSLMPPNMLDTVKMVYLARDPRDVAVSSFHHARLLYLLNKQSNFKDFWEMFHRGLYTLTPYFEHVKEAWAKRHDPNMLFLFYEDYLKDLPGCIARIADFLGKKLSEEQIQRLCEHLNFEKFKNNGAVNMEDYREIGILADGEHFIRKGKAGCWRDYFDEEMTKQAEKWIKDNLKDTDLRYPNMEL", "soluble on expression in E. coli": "soluble"}
{"sequence": "MSLWMYIHKIMKLSYKRVILTRELEDIKKDKPLFEREGFKVLELPLIQTKVLEFNLPDEEFDYIVFQSKKAVKIFLGKVNLKGNKKIVAVGKKTAEELEKLGYKADFIPENESAKGLIELFKRLPKGKVLIPRSKIGRTELIKFLKETSFEVFALDVYTTEYVFYTREELLEKLNKGDFIIFYSPSAVKAFFANLQMHKIPKDSLSLKFVAIGKTTKEELQKHSVKNVITSERPSTEDIVKKLKELARDLQKEGHHHHHH", "soluble on expression in E. coli": "soluble"}
{"sequence": "MRKLAAFLGLVGLLSLGLAQSAQEILDRVEKNLSTPWQATVQGRIQGPGGEEELLARVYALPQARLFRVEFLKPGSLEGNFTVITEKEVWNYLYLTNQLVISPREKAKIQGLGFAPQGLGDLKALSEQVDLRLEGEVRLPEGMAWKLVGRSKENQGFAAMELYILKADPRPLRFVFLDEKGKVLADLKVVEFKRTNLTEAQLKRYPKDAQVVRR", "soluble on expression in E. coli": "soluble"}
{"sequence": "ESVKGAQTDLTSLTDESQEKTLENGSPSSKIAVLEVSGTIQDNGDSSSLLGADGYNHRTFLKNLERAKDDKTVKGIVLKVNSPGGGVYESAEIHKKLEEIKKETKKPIYVSMGSMAASGGYYISTAADKIFATPETLTGSLGVIMESVNYSKLADKLGISFETIKSGAHKDIMSPSREMTKEEKNIMQSMVDNSYEGFVDVISKGRGMPKAEVKKIADGRVYDGRQAKKLNLVDELGFYDDTITAMKKDHKDLKNASVISYEESFGLGSLFSMGANKMFKSEIDFLNMREILSQSGS", "soluble on expression in E. coli": "not soluble"}
{"sequence": "MVIEESGNESEASVAPKRRRAPKGDMRRKALLDAATVVFARDGYSSASMREVALLAGITTVGLLHHFPNKEALLSALLERRDQRVTSRFQDMVTELTLDGFLKFLKLSMSFSVENADECQAALLMNTESLSPSHPACSWHRERFQMTHEHARGHLNALIEAGEVRADINVKALAQEIFSVMDGLQIQWLRSPDDVDVMAVFEVYVQRLGRDIKAHP", "soluble on expression in E. coli": "not soluble"}
{"sequence": "MTETYVLAESPEFYQDNVTDYTGQISSSDITNIQAAIDDVKASEQKVIFVVFLSSFDGVDPETWTQQALQANGGGNVLIYALAPEERQYGIQGGTQWTDAELDAANNAAFQALSQEDWAGSALALAESVGSSSSSSSGSSSLEHHHHHH", "soluble on expression in E. coli": "soluble"}
{"sequence": "GPGSMPPSQTVEYEEDFGHNLMIHREYISKRCRDRVSFELSALSYSNLELRRGQEHLAGIMNRERRGVSVGASGAPDDQVQMQTDVDANSREVLSARYLFNERRLQFCDRFQNFFQSKLENSAASDSNGHEKQHLFSLMEACAVIFGCETEAARETYYRMFLGLDSETLLEEDEALRNRIADAKLVQRVLENNKGRQEVTQSPKLQQQQDQGKPLHAVSSGTSLLNDCEEERFISSIPELSLFEDETEARANGFVEGEDDVKANNGDLTAGSFSSPASSVNLPEEFEEYAPLYKAYITHAVGKGPVASYDISTLGSTGLTAERRRWRTLMEKIVREDYHTMTEVEQMDAIVLNEQLHTVKFFDLKIGDAIRDILQLLQRETGVGSSVNRDTPVGISPNNPERRV", "soluble on expression in E. coli": "not soluble"}
{"sequence": "MGSDKIHHHHHHMRKDDVVIVTCAITGAIHTPSMSPYLPVTPDQIVEEAVKAAEAGAGMVHIHARDPKDGRPTTDVEVFRYICREIKKQSDVVINVTTGGGGTLGIPVEERAKVVPALKPEIATFNMGSMNFAIHPLLKKYKEFKYDWEPEYLEMTRDIVFRNTFKDLEALSRIFKENDTKPELECYDIGQIYNTAFMFHEGYLEPPLRLQFIHGILGGIGTAVEDVLFMKQTADRLIGRENYTWSLVGAGRFQMPLGTLAVIMGGDVRVGLEDSLYIERGKLAKSNAEQVEKMVRIVKELGKRPATPDEVREILGLKGKERVNF", "soluble on expression in E. coli": "not soluble"}
{"sequence": "MGSDKIHHHHHHMGAMRPNQTFSHKAAVKLRSVEFLQYAGVTKFHDVILTSLVDINIGIGKRGSAQIKLPYTCVSGSLANTSGTADISLAYTHAVLVKDTYQLLGTLGGKLPTNNADKLSSDGRPLPMYYQTSLGTNDLVVGLSFITRKWLLATGYQHAFNQIGNDFRWSEWNSSAQRTEALEYPPSWNLKRGSDVMFRIERNFRSTKWNAYLGLLTIYRITPDQVSKGTSENRVEVPNTTGPAITALSGAGYRFSTAVALKAMVGVKIINRDTNPDGLSREFVSSLSVEIRL", "soluble on expression in E. coli": "not soluble"}
{"sequence": "CTPKPKSAQPVAEEFFHNVAAQDFDAAAQLTDQDDSARELLSRSWEGLQAEGLDVSLNKVDAKDTVATAKYTLTWKLPKDRTLSYDTSMTLNRINDQWTIRWQPAAVHPKLAANQHLELRAINAERASVVSSDGAEVLVPGVQYRLIADTQHIIDKAATAQTIATHLRAARAADETVPELSASDIQQALETNRGSYSLAVVNERAGDSIKQALAGVSGIRLNKEAAMVNKDPNFAPDVIRRVSSLVNDQLAGANGWSVDAVTQDGVSMQTIERHAPQVAPAIRISLNHNVQVAAERAVNLRKDKQSMLVAIRPSTGEILAIAQSDLADKQGDLALNGQYPPGSTFKIVTASAGIQDQGLNADSIVPCPGTMNIYGRTVTNYNGFSLGNVPLEKAFARSCNTTFANISEQLNKGQLKEIGRDFGIGIDYDIPGLNTLTGSIPQGDTELARTEAGYGQGE", "soluble on expression in E. coli": "not soluble"}
